# Reference: article PMC12384393
# Key:
# [1] = target: equine LH/CGR-N174Q (equine)
# [2] = target: equine LH/CGR-N195Q (equine)
# [3] = target: equine LH/CGR-N291Q (equine)
# [4] = target: equine LH/CGR-N299Q (equine)
# [5] = target: equine LH/CGR-N313Q (equine)
# [6] = target: equine LH/CGR-N50Q (equine)
# [7] = target: equine LH/CGR-N99Q (equine)
# [8] = target: equine lutropin hormone/choriogonadotropin receptor, wild type (equine LH/CGR-WT) (equine)
# [9] = target: equine LH/CGR-N174Q (equine); remark: listed apart in the source
# [10] = target: equine LH/CGR-N195Q (equine); remark: listed apart in the source
# [11] = target: equine LH/CGR-N291Q (equine); remark: listed apart in the source
# [12] = target: equine LH/CGR-N299Q (equine); remark: listed apart in the source
# [13] = target: equine LH/CGR-N313Q (equine); remark: listed apart in the source
# [14] = target: equine LH/CGR-N50Q (equine); remark: listed apart in the source
# [15] = target: equine LH/CGR-N99Q (equine); remark: listed apart in the source
# [16] = target: equine lutropin hormone/choriogonadotropin receptor, wild type (equine LH/CGR-WT) (equine); remark: listed apart in the source
substance,measurement,setting,value
recombinant equine chorionic gonadotropin (rec-eCG) (from UniProt P08751 21-169; P01220 25-120) (ligand),EC50 of the cAMP response (HTRF) of transfected CHO-K1 cells stimulated with rec-eCG for 30 min,[1],179 ng/mL
same,EC50 of the cAMP response (HTRF) of transfected CHO-K1 cells stimulated with rec-eCG for 30 min,[2],136 ng/mL
same,EC50 of the cAMP response (HTRF) of transfected CHO-K1 cells stimulated with rec-eCG for 30 min,[3],18.4 ng/mL
same,EC50 of the cAMP response (HTRF) of transfected CHO-K1 cells stimulated with rec-eCG for 30 min,[4],26.9 ng/mL
same,EC50 of the cAMP response (HTRF) of transfected CHO-K1 cells stimulated with rec-eCG for 30 min,[5],34.7 ng/mL
same,EC50 of the cAMP response (HTRF) of transfected CHO-K1 cells stimulated with rec-eCG for 30 min,[6],17.7 ng/mL
same,EC50 of the cAMP response (HTRF) of transfected CHO-K1 cells stimulated with rec-eCG for 30 min,[7],24.1 ng/mL
same,EC50 of the cAMP response (HTRF) of transfected CHO-K1 cells stimulated with rec-eCG for 30 min,[8],23.7 ng/mL
same,"t1/2 of the loss of cell surface receptor (anti-VSVG ELISA on cells) after rec-eCG treatment, 0-120 min",[9],3.3 min
same,"t1/2 of the loss of cell surface receptor (anti-VSVG ELISA on cells) after rec-eCG treatment, 0-120 min",[10],31.4 min
same,"t1/2 of the loss of cell surface receptor (anti-VSVG ELISA on cells) after rec-eCG treatment, 0-120 min",[11],14.3 min
same,"t1/2 of the loss of cell surface receptor (anti-VSVG ELISA on cells) after rec-eCG treatment, 0-120 min",[12],12.8 min
same,"t1/2 of the loss of cell surface receptor (anti-VSVG ELISA on cells) after rec-eCG treatment, 0-120 min",[13],13.3 min
same,"t1/2 of the loss of cell surface receptor (anti-VSVG ELISA on cells) after rec-eCG treatment, 0-120 min",[14],5.6 min
same,"t1/2 of the loss of cell surface receptor (anti-VSVG ELISA on cells) after rec-eCG treatment, 0-120 min",[15],5.2 min
same,"t1/2 of the loss of cell surface receptor (anti-VSVG ELISA on cells) after rec-eCG treatment, 0-120 min",[16],5.6 min
